From paper PMC3237570

Biological target: Bbox1 domain of MID1
Assay: NMR titration; 1H-15N HSQC at 21°C, aqueous solution; 0.15 mM unlabeled alpha45 added to 0.3 mM 15N-labeled Bbox1 (Bbox1 to alpha45 1:0.5)

alpha45 (45-amino acid region of the C-terminus of alpha4, residues Glu236 to Leu280) (from UniProt P78318 236-280) (domain or fragment)
percent of Bbox1 bound to alpha45 (at 1:0.5): 40 to 50% | stoichiometry N: 1
